The target of assay [1] is GLP-1R of mouse pancreatic β-cells (mouse (endogenous in ddY mouse pancreas)) (UniProt O35659).
Assay [2] concerns the target Recombinant human GLP-1R protein (human) (UniProt P43220). Put plainly: SPR; Biacore T200; recombinant human GLP-1R (0.5 μM) immobilized on a CM5 sensor chip; peptides injected at four-fold serial dilutions (0, 0.1-100 nM); n = 3; 1:1 interaction model. On the technique in general: Surface plasmon resonance follows binding to a sensor surface in real time, without labels.

The term Kd denotes the equilibrium constant for the complex coming apart.

Recombinant human GLP-1R protein (human), sequence (P43220 24-463): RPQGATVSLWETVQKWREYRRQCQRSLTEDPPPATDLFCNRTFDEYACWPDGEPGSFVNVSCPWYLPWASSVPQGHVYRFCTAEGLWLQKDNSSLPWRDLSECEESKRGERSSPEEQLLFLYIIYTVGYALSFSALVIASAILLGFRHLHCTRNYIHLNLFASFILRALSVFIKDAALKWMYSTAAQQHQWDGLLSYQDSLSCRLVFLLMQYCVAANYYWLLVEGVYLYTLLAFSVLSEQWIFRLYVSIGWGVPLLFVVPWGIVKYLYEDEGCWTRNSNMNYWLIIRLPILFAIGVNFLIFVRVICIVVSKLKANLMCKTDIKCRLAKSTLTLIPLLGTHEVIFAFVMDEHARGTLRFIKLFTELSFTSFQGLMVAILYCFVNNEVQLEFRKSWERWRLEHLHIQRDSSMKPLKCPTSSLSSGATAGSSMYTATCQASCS
GLP-1R of mouse pancreatic β-cells (mouse (endogenous in ddY mouse pancreas)), sequence (O35659 22-463): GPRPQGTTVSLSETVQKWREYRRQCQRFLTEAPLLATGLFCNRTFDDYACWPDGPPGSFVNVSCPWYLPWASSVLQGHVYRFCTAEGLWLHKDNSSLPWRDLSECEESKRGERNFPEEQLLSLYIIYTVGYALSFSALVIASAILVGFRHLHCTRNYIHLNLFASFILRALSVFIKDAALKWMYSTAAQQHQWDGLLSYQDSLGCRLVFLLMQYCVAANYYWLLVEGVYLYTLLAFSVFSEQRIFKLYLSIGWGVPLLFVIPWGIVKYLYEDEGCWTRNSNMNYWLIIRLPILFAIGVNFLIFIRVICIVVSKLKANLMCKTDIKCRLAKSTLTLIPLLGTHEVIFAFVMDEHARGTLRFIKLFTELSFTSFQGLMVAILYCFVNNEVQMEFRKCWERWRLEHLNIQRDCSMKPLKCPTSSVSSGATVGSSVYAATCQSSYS

“I-Ex-4, Ex-4-C40 labeled with IPM at the additional C-terminal Cys (peptide)”: in assay [1], the radioactivity in the pancreas 5-120 min after i.v. administration of [^125I]I-Ex-4 to mice (highest at 60 min) (% injected dose per gram tissue) was 11.3. In addition, the Kd in assay [2] amounted to 28.1 nM.

These data come from paper PMC11901735.
